Data from patent US20230265151A1, “GIP/GLP1 CO-AGONIST COMPOUNDS” (priority 2020, published 2023).
Numbering of substitutions follows the chain as printed. Like-named read-outs stand apart in the source and are kept apart here.

T1: hGIPR (Homo sapiens, UniProt P48546)
T1 construct: expressed in transfected cells
T1 sequence (P48546 22-466): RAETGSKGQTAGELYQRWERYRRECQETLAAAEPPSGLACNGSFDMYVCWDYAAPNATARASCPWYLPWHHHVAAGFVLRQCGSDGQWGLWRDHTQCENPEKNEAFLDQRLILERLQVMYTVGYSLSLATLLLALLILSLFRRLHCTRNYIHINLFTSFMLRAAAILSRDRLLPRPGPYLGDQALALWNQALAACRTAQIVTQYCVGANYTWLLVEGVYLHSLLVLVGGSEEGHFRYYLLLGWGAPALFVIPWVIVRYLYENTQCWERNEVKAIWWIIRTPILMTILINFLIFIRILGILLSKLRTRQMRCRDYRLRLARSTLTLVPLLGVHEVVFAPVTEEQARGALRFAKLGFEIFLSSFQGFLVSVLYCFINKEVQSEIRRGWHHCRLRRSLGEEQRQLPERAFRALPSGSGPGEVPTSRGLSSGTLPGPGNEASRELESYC

T2: human GIP receptor (human, UniProt P48546 22-466)
T2 sequence (looked up): T1 sequence (P48546 22-466)

B1: Y-Aib-EGT-αMeF(2F)-TSDY-Dap-I-αMeL-LD-Orn-K((2-[2-(2-Amino-ethoxy)-ethoxy]-acetyl)2-(γ-Glu)-CO-(CH2)12-CO2H)AQ-Aib-EFI-(D-Glu)-αMeY-LIEGGK((2-[2-(2-Amino-ethoxy … (peptide)
peptide: YXEGTXTSDYXIXLDXKAQXEFIXXLIEGGKSSGAPPPS
modifications: Aib2, αMeF(2F)6, Dap11, αMeL13, Orn16, Aib20, D-Glu24, αMeY25; acylated K17, K31 (groups as in name); C-terminal amide
B2: Y-Aib-EGT-αMeF(2F)-TSD-4Pal-αMeS-I-αMeL-LD-Orn-K((2-[2-(2-Amino-ethoxy)-ethoxy]-acetyl)2-(γ-Glu)-CO-(CH2)12-CO2H)AQ-Aib-EFI-(D-Glu)-αMeY-LIEGGK((2-[2-(2-Amino-e … (peptide)
peptide: B1 peptide with Y10X
modifications: Aib2, αMeF(2F)6, 4Pal10, αMeS11, αMeL13, Orn16, Aib20, D-Glu24, αMeY25; acylated K17, K31 (groups as in name); C-terminal amide
B3: Y-Aib-EGT-αMeF(2F)-TSD-4Pal-Tle-I-αMeL-LD-Orn-K((2-[2-(2-Amino-ethoxy)-ethoxy]-acetyl)2-(γ-Glu)-CO-(CH2)12-CO2H)AQ-Aib-EFI-(D-Glu)-αMeY-LIEGGK((2-[2-(2-Amino-et … (peptide)
peptide: B1 peptide with Y10X
modifications: Aib2, αMeF(2F)6, 4Pal10, Tle11, αMeL13, Orn16, Aib20, D-Glu24, αMeY25; acylated K17, K31 (groups as in name); C-terminal amide

How the values were obtained:
hGLP-1R = hGLP-1R (Homo sapiens, UniProt P43220); test: Functional cAMP formation (HTRF) in HEK-293 clonal cells expressing hGLP-1R, 0.1% bovine casein, without or with 1.0% human serum albumin; type: cell-based; parameters: expressed in transfected cells; settings: 37° C.; for EC50: 0.1% bovine casein and 1.0% human serum albumin, geometric mean, read-out: hGLP-1R EC50, nM (SEM, n)
hGLP-1R, sequence (P43220 24-463): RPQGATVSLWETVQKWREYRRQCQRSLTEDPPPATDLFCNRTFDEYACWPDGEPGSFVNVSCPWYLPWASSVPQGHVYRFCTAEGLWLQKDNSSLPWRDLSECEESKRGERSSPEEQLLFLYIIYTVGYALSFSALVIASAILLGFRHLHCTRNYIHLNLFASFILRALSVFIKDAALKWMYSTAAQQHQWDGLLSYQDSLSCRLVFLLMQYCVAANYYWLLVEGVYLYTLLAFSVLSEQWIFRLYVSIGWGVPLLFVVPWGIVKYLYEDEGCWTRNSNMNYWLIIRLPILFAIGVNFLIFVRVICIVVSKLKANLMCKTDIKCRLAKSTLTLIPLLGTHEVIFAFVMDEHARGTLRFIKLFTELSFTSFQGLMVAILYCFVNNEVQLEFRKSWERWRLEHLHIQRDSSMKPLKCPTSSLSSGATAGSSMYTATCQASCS
Summary of the method: (§1)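 Cells were stimulated with peptide for 30 min at 37° C, then lysed in buffer carrying cAMP-d2 and anti-cAMP Eu3+-cryptate for a competitive HTRF read after at least 60 min at room temperature. The 665/620 nm ratio was converted to nM cAMP against a standard curve.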

hGIPR = target: T1, hGIPR; test: Functional cAMP formation (HTRF) in HEK-293 clonal cells expressing hGIPR, 0.1% bovine casein, without or with 1.0% human serum albumin; type: cell-based; settings: 37° C.; for EC50: 0.1% bovine casein and 1.0% human serum albumin, geometric mean, read-out: hGIPR EC50, nM (SEM, n); for Emax: read-out: hGIPR Emax, % ± SEM
Summary of the method: as §1

[1] = target: T3, human GLP-1 receptor (hGLP-1R) (Homo sapiens, UniProt P43220); test: [125I]-GLP-1 binding, SPA with membranes of HEK293 cells expressing hGLP-1R; settings: human GLP-1R; geometric mean (SEM, n); read-out: Binding Affinity Ki, nM (SEM, n) hGLP-1R
T3 construct: expressed in transfected cells; crude membranes
T3 sequence (P43220 24-463): as above
Experimental: Two methods are used for the preparation of crude cell membranes.
Method 1: Frozen cell pellets are lysed on ice in hypotonic buffer containing 50 mM Tris HCl, pH 7.5, and Roche Complete™ Protease Inhibitors with EDTA. […] The homogenate is centrifuged at 4° C. at 1100 × g for 10 minutes. The supernatant is collected and stored on ice while the pellets are resuspended in homogenization buffer and rehomogenized as described above. The homogenate is centrifuged at 1100 × g for 10 minutes. The second supernatant is combined with the first supernatant and centrifuged at 35000 × g for 1 hour at 4° C. The resulting membrane pellet is resuspended in homogenization buffer containing protease inhibitors at approximately 1 to 3 mg/mL, quick frozen in liquid nitrogen and stored as aliquots in a -80° C. freezer until use.
The homogenate is centrifuged at 4° C. at 1800 × g for 15 minutes. The supernatant is collected and stored on ice while the pellets are resuspended in homogenization buffer (without DNAse I) and rehomogenized as described above. The homogenate is centrifuged at 1800 × g for 15 minutes. The second supernatant is combined with the first supernatant and centrifuged an additional time at 1800 × g for 15 minutes. The overall supernatant is then centrifuged at 25000 × g for 30 minutes at 4° C. The resulting membrane pellet is resuspended in homogenization buffer (without DNAse I) containing protease inhibitors at approximately 1 to 3 mg/mL and stored as aliquots in a -80° C. freezer until use.
The human GLP-1 receptor binding assay is performed using an SPA format with WGA beads. The binding buffer contains 25 mM HEPES, pH 7.4, 2.5 mM CaCl2, 1 mM MgCl2, 0.1% (w/v) bacitracin, 0.003% (w/v) TWEEN®-20, and Roche Complete™ Protease Inhibitors without EDTA.
Raw CPM data for concentration curves of peptides, Gcg, GLP-1, or GIP are converted to percent inhibition by subtracting nonspecific binding (binding in the presence of excess unlabeled Gcg, GLP-1, or GIP, respectively) from the individual CPM values and dividing by the total binding signal, also corrected by subtracting nonspecific binding. Data are analyzed using four-parameter (curve maximum, curve minimum, IC50, Hill slope) nonlinear regression routines (Genedata Screener, version 12.0.4, Genedata AG, Basal, Switzerland). […] Values for Ki are reported as the geometric mean, with error expressed as the standard error of the mean (SEM) and n is equal to the number of independent replicates (determined in assays performed on different days). Geometric Means are calculated as follows: […]
The Ki Ratio (Ki for native control peptide/Ki for test compound) at each receptor and each species is calculated. The Ki Ratio is a rapid indication of the apparent affinity of a peptide compared to the native control peptide.
n=⅟x means that only one value out of the total number of replicates (x) is used to express the mean. SEM is only calculated when n=2 or greater non-qualified results exist. Means are expressed as GeoMetric means with the standard error of the mean (SEM) and the number of replicates (n) indicated in parenthesis.

hGCGR = target: T4, hGCGR (Homo sapiens, UniProt P47871); test: Functional cAMP formation (HTRF) in HEK-293 clonal cells expressing hGCGR, 0.1% bovine casein, without or with 1.0% human serum albumin; type: cell-based; settings: geometric mean, read-out: hGCGR EC50, nM (SEM, n)
T4 construct: expressed in transfected cells
T4 sequence (P47871 26-477): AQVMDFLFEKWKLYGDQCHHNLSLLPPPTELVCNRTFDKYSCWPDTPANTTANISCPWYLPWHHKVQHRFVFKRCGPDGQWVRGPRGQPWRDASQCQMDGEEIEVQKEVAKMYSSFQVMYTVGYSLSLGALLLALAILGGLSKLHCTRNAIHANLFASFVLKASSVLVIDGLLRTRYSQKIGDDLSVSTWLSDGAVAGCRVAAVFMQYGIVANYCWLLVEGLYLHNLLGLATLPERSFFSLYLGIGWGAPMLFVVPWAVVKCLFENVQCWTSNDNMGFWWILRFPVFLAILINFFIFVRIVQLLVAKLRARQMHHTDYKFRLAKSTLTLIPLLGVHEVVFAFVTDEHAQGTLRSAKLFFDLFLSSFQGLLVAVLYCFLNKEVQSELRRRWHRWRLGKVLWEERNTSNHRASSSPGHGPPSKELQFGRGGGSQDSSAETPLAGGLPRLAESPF
Summary of the method: as §1

human GIP receptor = target: T2, human GIP receptor; test: cell-based or functional assay
human glucagon receptor = human glucagon receptor (human, UniProt P47871 26-477); test: cell-based or functional assay
human GLP-1 receptor = human GLP-1 receptor (human, UniProt P43220 24-463); test: cell-based or functional assay

Molecule	EC50 (hGLP-1R) [nM]	Emax (hGLP-1R; HEK293, percent of maximal response to GLP-1(7-36)NH2, 0.1% bovine casein, arithmetic mean, read-out: hGLP-1R Emax, % ± SEM) [%]	EC50 (hGIPR) [nM]	Ki [1] [nM]	EC50 (hGCGR; 0.1% bovine casein and 1.0% human serum albumin, 37° C.) [nM]	EC50 (hGCGR; cAMP, incubated at 37° C., 0.1% bovine casein (no human serum albumin)) [nM]	Emax (hGIPR; HEK293, 0.1% bovine casein and 1.0% human serum albumin, percent of maximal response to GIP(1-42)NH2) [%]	Emax (hGIPR; HEK293, percent of maximal response to GIP(1-42)NH2, 0.1% bovine casein, arithmetic mean) [%]	cAMP EC50 (1.0% HSA) (human GIP receptor) [nM]	cAMP Emax (1.0% HSA) (human GIP receptor) [%]	cAMP EC50 (1.0% HSA) (human glucagon receptor) [nM]	cAMP EC50 (1.0% HSA) (human GLP-1 receptor) [nM]	cAMP Emax (1.0% HSA) (human GLP-1 receptor) [%]
CCCCCCCCCCCCCCCC(=O)N[C@@H](CCC(=O)NCCOCCOCC(=O)NCCOCCOCC(=O)NCCCC[C@H](NC(=O)CNC(=O)CNC(=O)[C@H](CCC(=O)O)NC(=O)[C@@H](NC(=O)[C@H](CC(C)C)NC(=O)[C@](C)(Cc1ccc(O)cc1)NC(=O)[C@@H](CCC(=O)O)NC(=O)[C@@H](NC(=O)[C@H](Cc1ccccc1)NC(=O)[C@H](CCC(=O)O)NC(=O)C(C)(C)NC(=O)[C@H](CCC(N)=O)NC(=O)[C@H](C)NC(=O)[C@H](CCCCNC(=O)COCCOCCNC(=O)COCCOCCNC(=O)CC[C@H](NC(=O)CCCCCCCCCCCCCCC)C(=O)O)NC(=O)[C@H](CCCN)NC(=O)[C@H](CC(=O)O)NC(=O)[C@H](CC(C)C)NC(=O)[C@](C)(CC(C)C)NC(=O)[C@@H](NC(=O)[C@H](CO)NC(=O)[C@H](Cc1ccncc1)NC(=O)[C@H](CC(=O)O)NC(=O)[C@H](CO)NC(=O)[C@@H](NC(=O)[C@](C)(Cc1ccccc1F)NC(=O)[C@@H](NC(=O)CNC(=O)[C@H](CCC(=O)O)NC(=O)C(C)(C)NC(=O)[C@@H](N)Cc1ccc(O)cc1)[C@@H](C)O)[C@@H](C)O)[C@@H](C)CC)[C@@H](C)CC)[C@@H](C)CC)C(=O)N[C@@H](CO)C(=O)N[C@@H](CO)C(=O)NCC(=O)N[C@@H](C)C(=O)N1CCC[C@H]1C(=O)N1CCC[C@H]1C(=O)N1CCC[C@H]1C(=O)N[C@@H](CO)C(N)=O)C(=O)O [Example 7]	2.74	95.4 ± 5.03	0.566	0.362									
CCCCCCCCCCCC(=O)N[C@@H](CCC(=O)NCCOCCOCC(=O)NCCCC[C@H](NC(=O)CNC(=O)CNC(=O)[C@H](CCC(=O)O)NC(=O)[C@@H](NC(=O)[C@H](CC(C)C)NC(=O)[C@](C)(Cc1ccc(O)cc1)NC(=O)[C@@H](CCC(=O)O)NC(=O)[C@@H](NC(=O)[C@H](Cc1ccccc1)NC(=O)[C@H](CCC(=O)O)NC(=O)C(C)(C)NC(=O)[C@H](CCC(N)=O)NC(=O)[C@H](C)NC(=O)[C@H](CCCCNC(=O)COCCOCCNC(=O)CC[C@H](NC(=O)CCCCCCCCCCC)C(=O)O)NC(=O)[C@H](CCCN)NC(=O)[C@H](CC(=O)O)NC(=O)[C@H](CC(C)C)NC(=O)[C@](C)(CC(C)C)NC(=O)[C@@H](NC(=O)[C@H](CO)NC(=O)[C@H](Cc1ccncc1)NC(=O)[C@H](CC(=O)O)NC(=O)[C@H](CO)NC(=O)[C@@H](NC(=O)[C@](C)(Cc1ccccc1F)NC(=O)[C@@H](NC(=O)CNC(=O)[C@H](CCC(=O)O)NC(=O)C(C)(C)NC(=O)[C@@H](N)Cc1ccc(O)cc1)[C@@H](C)O)[C@@H](C)O)[C@@H](C)CC)[C@@H](C)CC)[C@@H](C)CC)C(=O)N[C@@H](CO)C(=O)N[C@@H](CO)C(=O)NCC(=O)N[C@@H](C)C(=O)N1CCC[C@H]1C(=O)N1CCC[C@H]1C(=O)N1CCC[C@H]1C(=O)N[C@@H](CO)C(N)=O)C(=O)O [Example 14]	9.19		0.769	0.286	> 9950	> 9950	89.5 ± 1.02	95 ± 2.32					
B1									2.7	83.7	> 9950	26.6	
B2									4.38	95.6	> 9950	40.3	102
B3									6.09	75.3	> 9950	62.2	109
